From patent publication US12428633B2, “Inducible dimerization of recombinases” (TRUSTEES OF BOSTON UNIVERSITY, priority 2016, dated 2025)

B1: VCre 172: VCre (SEQ ID NO: 16) split into aa 1-172 and 173-380, fused to CIDD pair (protein)
chain: MIENQLSLLGDFSGVRPDDVKTAIQAAQKKGINVAENEQFKAAFEHLLNEFKKREERYSPNTLRRLESAWTCFVDWCLANHRHSLPATPDTVEAFFIERAEELHRNTLSVYRWAISRVHRVAGCPDPCLDIYVEDRLKAIARKKVREGEAVKQASPFNEQHLLKLTSLWYRSDKLLLRRNLALLAVAYESMLRASELANIRVSDMELAGDGTAILTIPITKTNHSGEPDTCILSQDVVSLLMDYTEAGKLDMSSDGFLFVGVSKHNTCIKPKKDKQTGEVLHKPITTKTVEGVFYSAWETLDLGRQGVKPFTAHSARVGAAQDLLKKGYNTLQIQQSGRWSSGAMVARYGRAILARDGAMAHSRVKTRSAPMQWGKDEKD
modifications: split at 172/173; CIDD pair fusions lack entries
B2: VCre 82: VCre (SEQ ID NO: 16) split into aa 1-82 and 83-380, fused to CIDD pair (protein)
chain: B1 chain
modifications: split at 82/83; CIDD pair fusions lack entries
B3: VCre 277: VCre (SEQ ID NO: 16) split into aa 1-277 and 278-380, fused to CIDD pair (protein)
chain: B1 chain
modifications: split at 277/278; CIDD pair fusions lack entries
B4: VCre 269: VCre (SEQ ID NO: 16) split into aa 1-269 and 270-380, fused to CIDD pair (protein)
chain: B1 chain
modifications: split at 269/270; CIDD pair fusions lack entries
B5: Flp 396: Flp (SEQ ID NO: 1) split into aa 1-396 and 397-423, fused to CIDD pair (protein)
chain 1: MSQFDILCKTPPKVLVRQFVERFERPSGEKIASCAAELTYLCWMITHNGTAIKRATFMSYNTIISNSLSFDIVNKSLQFKYKTQKATILEASLKKLIPAWEFTIIPYNGQKHQSDITDIVSSLQLQFESSEEADKGNSHSKKMLKALLSEGESIWEITEKILNSFEYTSRFTKTKTLYQFLFLATFINCGRFSDIKNVDPKSFKLVQNKYLGVIIQCLVTETKTSVSRHIYFFSARGRIDPLVYLDEFLRNSEPVLKRVNRTGNSSSNKQEYQLLKDNLVRSYNKALKKNAPYPIFAIKNGPKSHIGRHLMTSFLSMKGLTELTNVVGNWSDKRASAVARTTYTHQITAIPDHYFALVSRYYAYDPISKEMIALKDETNPIEEWQHIEQLKGSAEG
chain 2: SIRYPAWNGIISQEVLDYLSSYINRRI
modifications: fused to CIDD pair
B6: Flp 168: Flp (SEQ ID NO: 1) split into aa 1-168 and 169-423, fused to CIDD pair (protein)
chain 1: MSQFDILCKTPPKVLVRQFVERFERPSGEKIASCAAELTYLCWMITHNGTAIKRATFMSYNTIISNSLSFDIVNKSLQFKYKTQKATILEASLKKLIPAWEFTIIPYNGQKHQSDITDIVSSLQLQFESSEEADKGNSHSKKMLKALLSEGESIWEITEKILNSFEYT
chain 2: SRFTKTKTLYQFLFLATFINCGRFSDIKNVDPKSFKLVQNKYLGVIIQCLVTETKTSVSRHIYFFSARGRIDPLVYLDEFLRNSEPVLKRVNRTGNSSSNKQEYQLLKDNLVRSYNKALKKNAPYPIFAIKNGPKSHIGRHLMTSFLSMKGLTELTNVVGNWSDKRASAVARTTYTHQITAIPDHYFALVSRYYAYDPISKEMIALKDETNPIEEWQHIEQLKGSAEGSIRYPAWNGIISQEVLDYLSSYINRRI
modifications: fused to CIDD pair
B7: Flp 374: Flp (SEQ ID NO: 1) split into aa 1-374 and 375-423, fused to CIDD pair (protein)
chain 1: MSQFDILCKTPPKVLVRQFVERFERPSGEKIASCAAELTYLCWMITHNGTAIKRATFMSYNTIISNSLSFDIVNKSLQFKYKTQKATILEASLKKLIPAWEFTIIPYNGQKHQSDITDIVSSLQLQFESSEEADKGNSHSKKMLKALLSEGESIWEITEKILNSFEYTSRFTKTKTLYQFLFLATFINCGRFSDIKNVDPKSFKLVQNKYLGVIIQCLVTETKTSVSRHIYFFSARGRIDPLVYLDEFLRNSEPVLKRVNRTGNSSSNKQEYQLLKDNLVRSYNKALKKNAPYPIFAIKNGPKSHIGRHLMTSFLSMKGLTELTNVVGNWSDKRASAVARTTYTHQITAIPDHYFALVSRYYAYDPISKEMIAL
chain 2: KDETNPIEEWQHIEQLKGSAEGSIRYPAWNGIISQEVLDYLSSYINRRI
modifications: fused to CIDD pair
B8: Flp 27: Flp (SEQ ID NO: 1) split into aa 1-27 and 28-423, fused to CIDD pair (protein)
chain 1: MSQFDILCKTPPKVLVRQFVERFERPS
chain 2: GEKIASCAAELTYLCWMITHNGTAIKRATFMSYNTIISNSLSFDIVNKSLQFKYKTQKATILEASLKKLIPAWEFTIIPYNGQKHQSDITDIVSSLQLQFESSEEADKGNSHSKKMLKALLSEGESIWEITEKILNSFEYTSRFTKTKTLYQFLFLATFINCGRFSDIKNVDPKSFKLVQNKYLGVIIQCLVTETKTSVSRHIYFFSARGRIDPLVYLDEFLRNSEPVLKRVNRTGNSSSNKQEYQLLKDNLVRSYNKALKKNAPYPIFAIKNGPKSHIGRHLMTSFLSMKGLTELTNVVGNWSDKRASAVARTTYTHQITAIPDHYFALVSRYYAYDPISKEMIALKDETNPIEEWQHIEQLKGSAEGSIRYPAWNGIISQEVLDYLSSYINRRI
modifications: fused to CIDD pair

System: VloxP
Assay: Gibberellin ester (GIB)-induced split-VCre rejoinder, GFP reporter
Type: cell-based, human
Conditions: GAI/GID1 CIDD pair; with vs without GIB
Description: FIGS. 42A-42B show results of gene expression of different split-recombinase Cre (SEQ ID NO: 74) or VCre fragments (SEQ ID NO: 16).
(§1) DNA was transfected into the human embryonic kidney cell line (HEK293FT) using a polyethylenimine (PEI) protocol. Cells were plated onto 48-(2504) or 96-well (1004) plates the day prior to transfection (200,000 cells/mL), such that the cells were 50-70% confluent the day of transfection. Cells were kept in a humidified incubator at 37° C. and 5% CO2 and maintained in DMEM medium (Corning) with 10% Heat Inactivated Fetal Bovine Serum (Life Technologies), 50 U.I./mL penicillin/50 μg/mL streptomycin (Corning), 2 mM glutamine (Corning) and 1 mM sodium pyruvate (Lonza). PEI stocks were made from linear polyethylenimine (Polysciences 23966-2) and were dissolved at a concentration of 0.323 g/L in deionized water with the assistance of concentrated hydrochloric acid and sodium hydroxide and then filtered sterilized (0.24 μm). PEI stocks were stored at −80° C. until use and warmed to room temperature prior to usage. For 48-well plate transfections, DNA (1000 ng, 50 ng/4) was dissolved and brought up to a volume of 50 μL using 0.15 M sodium chloride (NaCl, Fisher Scientific). DNA-NaCl solutions were then mixed with 50 μL of a PEI-NaCl mixture (8 uL PEI: 42 uL NaCl). These solutions were then incubated at room temperature for ten minutes and 25 μL was carefully dropped into individual wells of HEK293FT cells (250 ng DNA/well). Similarly, for 96-well plate transfections, DNA (500 ng, 50 ng/4) was dissolved and brought up to a volume of 25 μL using 0.15 M sodium chloride (NaCl). DNA-NaCl solutions were then mixed with 25 μL of a PEI-NaCl (4 uL PEI: 21 uL NaCl) mixture. These solutions were then incubated at room temperature for ten minutes and 10 μL was carefully dropped into individual wells of HEK293FT cells (100 ng DNA/well). Electronic space-adjustable multichannel pipettors (Integra Biosciences) were utilized throughout the process for rapid aspiration and dispensing of molecular and cellular reagents. A Countess II image-based cell counter (Life Technologies) was used for measuring human cell population densities.
Rapamycin analog (Clontech A/C heterodimerizer AP21967, 0.5 mM) was used as a 1000× stock for chemical induction experiments. […]
(§2) Two days post-transfection and after trypsinization (0.05% Trypsin/0.53 mM EDTA, Corning) and resuspension, all HEK293FT cell populations were analyzed using a Becton Dickinson (BD) LSRFortessa SORP flow cytometer with HTS. […]

Molecule | GFP expression of split-VCre by split site (S)
B1 | result in GFP expression in the presence of GIB
B2 | result in GFP expression in the presence of GIB
B3 | result in GFP expression in the presence of GIB
B4 | result in GFP expression in the presence of GIB

System: pCAG-FRT-Neo-FRT-GFP reporter
Assay: Gibberellin ester (GIB)-induced split-Flp rejoinder, GFP reporter
Type: cell-based, human
Conditions: GAI/GID1 CIDD pair; with vs without GIB
Description: Full length FlpO and split Flp vectors were tested for induction of recombinase activity on a pCAG-FRT-Neo-FRT-GFP reporter with and without the presence of gibberellin ester (GIB).
FIGS. 43A-43E show results of gene expression of different split-recombinase Flp (SEQ ID NO: 1) or B3 fragments (SEQ ID NO: 19). […] FIGS. 43B-43E show the GFP expression levels of different amino acid residue of split sites (S) of Flp amino acid sequence (top; shown in blue) and amino acid residue of split sites (S) of B3 amino acid sequence (below, shown in orange).
as §1, with “A Countess II image-based cell counter (Life Technologies) was used for measuring human cell population densities.” left out
as §2

Molecule | GFP expression of split-Flp by split site (S)
B5 | result in GFP expression in the presence of GIB
B6 | result in GFP expression in the presence of GIB
B7 | result in GFP expression in the presence of GIB
B8 | result in GFP expression in the presence of GIB
